Measured values reported in patent US20220396813.
Positions count from the first letter of the chain named.

Legend:
Experiment in all cases: cell_activity
[1] = tested on: T1, Rec29 WP_089415106.1 (Pantoea agglomerans); details: HEK293T inversion; background 1.305
T1 sequence: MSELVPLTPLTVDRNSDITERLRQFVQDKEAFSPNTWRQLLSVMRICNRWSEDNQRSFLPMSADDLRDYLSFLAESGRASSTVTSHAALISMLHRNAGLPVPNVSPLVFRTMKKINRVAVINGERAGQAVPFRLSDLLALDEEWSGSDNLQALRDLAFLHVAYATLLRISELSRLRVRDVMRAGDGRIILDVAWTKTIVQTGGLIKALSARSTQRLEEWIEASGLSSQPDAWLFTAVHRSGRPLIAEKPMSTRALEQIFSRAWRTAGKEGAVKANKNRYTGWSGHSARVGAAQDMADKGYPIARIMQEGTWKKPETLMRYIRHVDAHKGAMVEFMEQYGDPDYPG

Rec142 = target: T2, Rec142 (UniProt A0A0J6VB22); details: HEK293T inversion; background 4.4
T2 sequence: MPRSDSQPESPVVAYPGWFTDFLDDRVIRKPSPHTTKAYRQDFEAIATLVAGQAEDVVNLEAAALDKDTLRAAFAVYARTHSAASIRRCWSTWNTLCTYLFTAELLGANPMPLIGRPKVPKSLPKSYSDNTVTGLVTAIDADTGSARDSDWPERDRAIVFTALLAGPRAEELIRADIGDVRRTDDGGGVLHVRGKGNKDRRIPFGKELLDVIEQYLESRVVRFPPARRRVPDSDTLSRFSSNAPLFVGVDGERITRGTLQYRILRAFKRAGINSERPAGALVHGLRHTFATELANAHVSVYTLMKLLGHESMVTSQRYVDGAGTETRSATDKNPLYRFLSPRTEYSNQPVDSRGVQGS

Rec19 WP_058958135.1 = tested on: T3, Rec19 WP_058958135.1; details: HEK293T inversion; background 0.0065
T3 sequence: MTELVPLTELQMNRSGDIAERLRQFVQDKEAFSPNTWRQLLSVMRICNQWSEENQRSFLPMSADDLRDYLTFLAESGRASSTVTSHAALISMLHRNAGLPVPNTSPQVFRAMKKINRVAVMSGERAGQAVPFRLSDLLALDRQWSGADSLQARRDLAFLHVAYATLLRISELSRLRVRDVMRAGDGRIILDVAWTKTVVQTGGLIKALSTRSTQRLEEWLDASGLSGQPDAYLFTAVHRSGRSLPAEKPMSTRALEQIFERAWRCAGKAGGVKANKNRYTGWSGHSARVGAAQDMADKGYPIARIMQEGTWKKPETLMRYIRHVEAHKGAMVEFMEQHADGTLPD

[2] = tested on: T4, Rec20 WP_090967054.1 (Pantoea sp. OV426); details: HEK293T inversion; background 4.93
T4 sequence: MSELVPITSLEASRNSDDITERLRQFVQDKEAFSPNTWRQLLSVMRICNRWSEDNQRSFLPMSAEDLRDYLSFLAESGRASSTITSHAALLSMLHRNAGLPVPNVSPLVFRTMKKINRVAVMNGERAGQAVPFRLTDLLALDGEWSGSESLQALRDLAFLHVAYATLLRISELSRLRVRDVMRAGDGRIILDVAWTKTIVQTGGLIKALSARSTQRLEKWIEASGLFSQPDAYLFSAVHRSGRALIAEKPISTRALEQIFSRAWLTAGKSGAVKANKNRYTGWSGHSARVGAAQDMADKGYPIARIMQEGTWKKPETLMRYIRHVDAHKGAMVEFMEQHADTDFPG

[3] = tested on: T5, Rec32 WP_069027120.1 (Pantoea agglomerans); details: HEK293T inversion; background 6.6
T5 sequence: T1 sequence with R49C, E75Q, S135T, E142K, S145A, A210T, L225I, L244Q, A254S, G339S

[4] = tested on: T6, Rec35 WP_134161939.1 (Pantoea allii); details: HEK293T inversion; background 6.6
T6 sequence: T1 sequence with L10Q, S135T, E142K, S145A, A210T, L225I, A231V, A254S, G339S

[5] = tested on: T7, Rec39 WP_111138305.1 (Pantoea sp. ARC607); details: HEK293T inversion; background 6.6
T7 sequence: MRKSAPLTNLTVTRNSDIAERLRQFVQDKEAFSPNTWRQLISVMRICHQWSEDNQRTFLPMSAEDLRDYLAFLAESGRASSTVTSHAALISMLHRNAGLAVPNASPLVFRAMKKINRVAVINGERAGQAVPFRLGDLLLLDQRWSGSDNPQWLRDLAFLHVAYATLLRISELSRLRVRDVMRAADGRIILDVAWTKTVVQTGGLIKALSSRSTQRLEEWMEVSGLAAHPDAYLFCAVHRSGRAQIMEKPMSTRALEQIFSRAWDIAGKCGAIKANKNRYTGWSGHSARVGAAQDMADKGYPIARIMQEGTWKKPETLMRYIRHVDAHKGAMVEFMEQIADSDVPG

[6] = tested on: T8, Rec38 WP_115764642.1 (Pantoea agglomerans); details: HEK293T inversion; background 6.6
T8 sequence: T1 sequence with T11M, S135T, E142K, S145A, D148E, A152S, A210T, L225I, A254S, G339S

[7] = tested on: T9, Rec34 WP_109653747.1 (Pantoea agglomerans); details: HEK293T inversion; background 6.6
T9 sequence: T1 sequence with S135T, E142K, S145A, A210T, L225I, A254S, G339S

[8] = tested on: T10, Rec36 WP_111534863.1 (Pantoea sp.); details: HEK293T inversion; background 6.6
T10 sequence: T1 sequence with G345D

[9] = tested on: T11, Rec31 WP_046103089.1 (Pantoea anthophila); details: HEK293T inversion; background 1.305
T11 sequence: T3 sequence with S135T, G341D, T342A

[10] = tested on: T12, Rec33 WP_010671927.1 (Pantoea sp.); details: HEK293T inversion; background 6.6
T12 sequence: T1 sequence with E142K

[11] = tested on: T13, Rec37 WP_128085508.1 (Pantoea deleyi); details: HEK293T inversion; background 6.6
T13 sequence: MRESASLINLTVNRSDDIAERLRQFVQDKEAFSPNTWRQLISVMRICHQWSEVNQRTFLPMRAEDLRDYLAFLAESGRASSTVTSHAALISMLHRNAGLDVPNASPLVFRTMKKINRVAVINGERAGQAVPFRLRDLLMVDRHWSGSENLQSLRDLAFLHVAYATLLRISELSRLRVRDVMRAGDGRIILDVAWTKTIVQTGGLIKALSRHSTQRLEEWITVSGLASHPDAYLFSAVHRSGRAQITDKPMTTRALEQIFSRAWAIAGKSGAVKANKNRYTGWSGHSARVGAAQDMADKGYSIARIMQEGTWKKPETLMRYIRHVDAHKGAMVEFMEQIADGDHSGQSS

[12] = tested on: T14, Rec30 WP_022624268.1 (Pantoea sp.); details: HEK293T inversion; background 1.305
T14 sequence: T1 sequence with G98E, E142K

[13] = tested on: T15, Rec15 XP_012333305.1 (Plasmodium fragile); details: HEK293T inversion; background 2.178
T15 sequence: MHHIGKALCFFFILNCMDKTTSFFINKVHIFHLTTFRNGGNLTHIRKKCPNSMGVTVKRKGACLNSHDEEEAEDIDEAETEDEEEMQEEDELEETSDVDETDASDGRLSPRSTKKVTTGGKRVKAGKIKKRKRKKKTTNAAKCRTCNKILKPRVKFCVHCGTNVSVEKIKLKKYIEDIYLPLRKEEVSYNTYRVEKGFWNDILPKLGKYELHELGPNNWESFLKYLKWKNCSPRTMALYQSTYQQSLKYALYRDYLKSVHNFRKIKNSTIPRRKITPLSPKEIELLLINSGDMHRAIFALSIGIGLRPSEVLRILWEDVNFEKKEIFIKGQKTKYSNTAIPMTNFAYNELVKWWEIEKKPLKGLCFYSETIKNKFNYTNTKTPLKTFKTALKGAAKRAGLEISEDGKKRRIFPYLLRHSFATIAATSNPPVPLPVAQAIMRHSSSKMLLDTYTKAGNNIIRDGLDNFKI

Rec82 = details: HEK293T inversion; background 5.03
Rec83 = details: HEK293T inversion; background 5.425

ATGACTTCGTATANNNNNNNNTATACGAAGTCAT (double strand) [Rec29 natural site]
activity [1]: 36.9 % GFP+

CCGTCATGGATANNNNNNNNTATCCATGAAGC (double strand) [Rec142 natural site]
activity (Rec142): 20.2 % GFP+

TGACTTCGTATANNNNNNNNTATACGAAGCCA (double strand) [Rec19-20 natural site]
activity (Rec19 WP_058958135.1): 63.6 % GFP+
activity [2]: 70.7 % GFP+

TGACTTCGTATANNNNNNNNTATACGAAGTCA (double strand) [Rec30-39 natural site]
activity [3]: 60 % GFP+
activity [4]: 52 % GFP+
activity [5]: 42 % GFP+
activity [6]: 44.5 % GFP+
activity [7]: 50.6 % GFP+
activity [8]: 44.2 % GFP+
activity [9]: 21.3 % GFP+
activity [10]: 51 % GFP+
activity [11]: 40 % GFP+
activity [12]: 32.1 % GFP+

TGCATATACATANNNNNNNNTATATATATGTA (double strand) [Rec15 natural site]
activity [13]: 5.91 % GFP+

TGTGACTCCAGANNNNNNNNNTCTGGAGTCATA (double strand) [Rec82-83 natural site]
activity (Rec82): 59 % GFP+
activity (Rec83): 65.2 % GFP+
